Test results taken from article PMC6030132, “Tailoring recombinant lipases: keeping the His-tag favors esterification reactions, removing it favors hydrolysis reactions” (Scientific Reports, 2018).

How the values were obtained:
[1] = system: T1, CCCCCCCCCC(=O)Oc1ccc([N+](=O)[O-])cc1; experiment: purified protein; type: biochemical, uncultured bacterium; settings: apparent constant, free enzyme, 50 mM Tris-HCl pH 7.5, 1 mM CaCl2, 0.6% Triton X-100, 4% isopropanol, 1% acetonitrile, 25 °C, 95% confidence interval in parentheses
T1 construct: full-length lipC12 product (293 residues) from pTEV5lipC12, E. coli BL21(DE3); His-tag cut off with TEV protease, GASH left at N-terminus

[2] = system: T2, CCCCCCCCCC(=O)Oc1ccc([N+](=O)[O-])cc1; experiment: purified protein; type: biochemical, uncultured bacterium; settings: apparent constant, free enzyme, 50 mM Tris-HCl pH 7.5, 1 mM CaCl2, 0.6% Triton X-100, 4% isopropanol, 1% acetonitrile, 25 °C, 95% confidence interval in parentheses
T2 construct: full-length lipC12 product (293 residues) from pTEV5lipC12, E. coli BL21(DE3)

| Substance | Km [1] | kcat [1] | kcat/Km [1] | Km [2] | kcat [2] | kcat/Km [2] |
| --- | --- | --- | --- | --- | --- | --- |
| cLipC12 (uncultured bacterium) | 1.33 (1.17–1.51) mM | 2.52 s⁻¹ | 1900 M⁻¹ s⁻¹ |  |  |  |
| HisTEVS-LipC12 (uncultured bacterium) |  |  |  | 1.77 (1.56–2.02) mM | 2.53 s⁻¹ | 1430 M⁻¹ s⁻¹ |
